Source: patent publication US20140087995A1 (published 2014)
Numbered stars: 1 amine (or outer) side, 2 acyl side, 3 side chain; on linkers, the order of the positions; unused ones are H or OH. Bridge positions count the residues as written; N and C are the ends. * marks the point of attachment. C20 diacid = O=C(O)CCCCCCCCCCCCCCCCCCC(=O)*; γGlu = O=C(O)[C@H](CCC(=O)[*:2])N[*:1]

T1: rat calcitonin receptor (rat, UniProt P32214 25-516)
T1 construct: whole, on cells; Used as membranes prepared from the transfected cells; also called rCTR; rat calcitonin (a) receptor
T1 sequence (looked up): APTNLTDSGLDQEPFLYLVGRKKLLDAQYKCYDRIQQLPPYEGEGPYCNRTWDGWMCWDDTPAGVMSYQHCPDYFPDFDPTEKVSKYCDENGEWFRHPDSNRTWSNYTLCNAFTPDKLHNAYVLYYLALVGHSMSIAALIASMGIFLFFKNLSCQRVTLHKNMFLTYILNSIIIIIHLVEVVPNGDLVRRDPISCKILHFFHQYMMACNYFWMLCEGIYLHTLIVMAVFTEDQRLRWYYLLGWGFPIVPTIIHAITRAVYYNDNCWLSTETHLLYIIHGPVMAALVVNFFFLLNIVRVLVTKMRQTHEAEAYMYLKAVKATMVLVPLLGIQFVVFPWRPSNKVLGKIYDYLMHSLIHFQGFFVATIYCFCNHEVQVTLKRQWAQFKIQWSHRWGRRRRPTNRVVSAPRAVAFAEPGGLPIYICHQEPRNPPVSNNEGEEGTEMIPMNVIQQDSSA

T2: human calcitonin receptor (human, UniProt P30988 25-474)
T2 construct: whole, on cells; Used as membranes prepared from the transfected cells (Assay VII); also called hCTR; hCT
T2 sequence (looked up): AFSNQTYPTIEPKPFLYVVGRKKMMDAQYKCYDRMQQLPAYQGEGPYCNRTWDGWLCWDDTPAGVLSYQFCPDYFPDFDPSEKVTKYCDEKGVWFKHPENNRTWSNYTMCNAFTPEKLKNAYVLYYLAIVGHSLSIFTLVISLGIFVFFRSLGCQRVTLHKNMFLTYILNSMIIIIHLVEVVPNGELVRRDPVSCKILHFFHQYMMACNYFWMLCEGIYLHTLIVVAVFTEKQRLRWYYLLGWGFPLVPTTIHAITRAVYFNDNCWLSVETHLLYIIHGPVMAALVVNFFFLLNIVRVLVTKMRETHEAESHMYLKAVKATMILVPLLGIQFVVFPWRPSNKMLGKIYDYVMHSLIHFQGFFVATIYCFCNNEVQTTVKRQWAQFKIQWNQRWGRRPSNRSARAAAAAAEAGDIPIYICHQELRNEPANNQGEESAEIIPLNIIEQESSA

T3: rat amylin receptor (rat calcitonin receptor + rat RAMP 3) (rat, UniProt P32214 25-516; Q9JJ73 23-147)
T3 construct: whole, on cells; Used as membranes prepared from the transfected cells; also called rAmylin-R; rat amylin 3(a) receptor
T3 sequence (looked up) 1: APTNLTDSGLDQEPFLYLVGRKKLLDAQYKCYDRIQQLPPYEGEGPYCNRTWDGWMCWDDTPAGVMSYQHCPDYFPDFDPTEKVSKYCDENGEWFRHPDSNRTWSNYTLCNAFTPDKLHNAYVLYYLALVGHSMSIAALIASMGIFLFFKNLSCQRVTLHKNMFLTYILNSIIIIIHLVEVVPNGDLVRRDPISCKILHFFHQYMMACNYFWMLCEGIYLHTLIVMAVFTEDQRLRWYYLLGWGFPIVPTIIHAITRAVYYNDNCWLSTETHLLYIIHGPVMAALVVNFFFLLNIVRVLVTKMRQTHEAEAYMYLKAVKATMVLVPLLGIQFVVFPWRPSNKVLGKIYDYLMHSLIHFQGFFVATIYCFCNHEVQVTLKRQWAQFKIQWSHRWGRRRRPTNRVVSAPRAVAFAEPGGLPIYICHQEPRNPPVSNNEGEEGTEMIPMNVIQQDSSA
T3 sequence (looked up) 2: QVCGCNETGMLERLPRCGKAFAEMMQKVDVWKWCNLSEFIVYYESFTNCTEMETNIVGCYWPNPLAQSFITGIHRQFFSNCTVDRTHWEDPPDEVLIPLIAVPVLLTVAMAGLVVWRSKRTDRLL


Key:
rat calcitonin receptor [1] = molecular target: T1, rat calcitonin receptor; assay: ratio IC50 rat calcitonin receptor / IC50 rat amylin receptor (Assays VIII and VI)
[2] = molecular target: T2, human calcitonin receptor; assay: ratio IC50 human calcitonin receptor / IC50 human amylin receptor (Assays VII and V)
Method in brief: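 Membranes (35 ng/μL final) + SPA beads, 50 mM Hepes pH 7.4 buffer with 1 mM CaCl2, 5 mM MgCl₂, 0.1% OA, 0.02% Tween20; 120 min, 25° C, shaking; centrifuged, counted; IC₅₀ by one-site binding competition.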

[3] = molecular target: T3, rat amylin receptor (rat calcitonin …); assay: SPA competition with 125I-rat amylin, membranes of BHK cells with rat calcitonin receptor + rat RAMP3 (Assay VI)
rat calcitonin receptor [4] = molecular target: T1, rat calcitonin receptor; assay: SPA competition with 125I-calcitonin, membranes of BHK cells with rat calcitonin receptor (Assay VIII)

| Binder | Ratio rCT/rAmylin binding (rat calcitonin receptor [1]) | Ratio hCT/hAmylin binding [2] | IC50 [3] [nM] | IC50 (rat calcitonin receptor [4]) [nM] |
| --- | --- | --- | --- | --- |
| {C20 diacid-γGlu}-KCNTATCATQRLAEFLRHSSPNFGAIPSSTPVGSNTY-NH2 (disulfide 2-7; SMILES CC[C@H](C)[C@H](NC(=O)[C@H](C)NC(=O)CNC(=O)[C@H](Cc1ccccc1)NC(=O)[C@H](CC(N)=O)NC(=O)[C@@H]1CCCN1C(=O)[C@H](CO)NC(=O)[C@H](CO)NC(=O)[C@H](Cc1c[nH]cn1)NC(=O)[C@H](CCCNC(=N)N)NC(=O)[C@H](CC(C)C)NC(=O)[C@H](Cc1ccccc1)NC(=O)[C@H](CCC(=O)O)NC(=O)[C@H](C)NC(=O)[C@H](CC(C)C)NC(=O)[C@H](CCCNC(=N)N)NC(=O)[C@H](CCC(N)=O)NC(=O)[C@@H](NC(=O)[C@H](C)NC(=O)[C@@H]1CSSC[C@H](NC(=O)[C@H](CCCCN)NC(=O)CC[C@H](NC(=O)CCCCCCCCCCCCCCCCCCC(=O)O)C(=O)O)C(=O)N[C@@H](CC(N)=O)C(=O)N[C@@H]([C@@H](C)O)C(=O)N[C@@H](C)C(=O)N[C@@H]([C@@H](C)O)C(=O)N1)[C@@H](C)O)C(=O)N1CCC[C@H]1C(=O)N[C@@H](CO)C(=O)N[C@@H](CO)C(=O)N[C@H](C(=O)N1CCC[C@H]1C(=O)N[C@H](C(=O)NCC(=O)N[C@@H](CO)C(=O)N[C@@H](CC(N)=O)C(=O)N[C@H](C(=O)N[C@@H](Cc1ccc(O)cc1)C(N)=O)[C@@H](C)O)C(C)C)[C@@H](C)O, Derivative of human amylin; also called compound 31) | 42.8 | 16 | 0.619 | 26.5 |
| {C20 diacid-γGlu}-KCNTATCATQRLAEFLRHSSPNFGAIPSSTNVGSETY-NH2 (disulfide 2-7; SMILES CC[C@H](C)[C@H](NC(=O)[C@H](C)NC(=O)CNC(=O)[C@H](Cc1ccccc1)NC(=O)[C@H](CC(N)=O)NC(=O)[C@@H]1CCCN1C(=O)[C@H](CO)NC(=O)[C@H](CO)NC(=O)[C@H](Cc1c[nH]cn1)NC(=O)[C@H](CCCNC(=N)N)NC(=O)[C@H](CC(C)C)NC(=O)[C@H](Cc1ccccc1)NC(=O)[C@H](CCC(=O)O)NC(=O)[C@H](C)NC(=O)[C@H](CC(C)C)NC(=O)[C@H](CCCNC(=N)N)NC(=O)[C@H](CCC(N)=O)NC(=O)[C@@H](NC(=O)[C@H](C)NC(=O)[C@@H]1CSSC[C@H](NC(=O)[C@H](CCCCN)NC(=O)CC[C@H](NC(=O)CCCCCCCCCCCCCCCCCCC(=O)O)C(=O)O)C(=O)N[C@@H](CC(N)=O)C(=O)N[C@@H]([C@@H](C)O)C(=O)N[C@@H](C)C(=O)N[C@@H]([C@@H](C)O)C(=O)N1)[C@@H](C)O)C(=O)N1CCC[C@H]1C(=O)N[C@@H](CO)C(=O)N[C@@H](CO)C(=O)N[C@H](C(=O)N[C@@H](CC(N)=O)C(=O)N[C@H](C(=O)NCC(=O)N[C@@H](CO)C(=O)N[C@@H](CCC(=O)O)C(=O)N[C@H](C(=O)N[C@@H](Cc1ccc(O)cc1)C(N)=O)[C@@H](C)O)C(C)C)[C@@H](C)O, Derivative of human amylin; also called compound 22) | 28.5 | 12.3 | 2.19 | 62.5 |
| {C20 diacid-γGlu}-KCNTATCATQRLAHFLRHSSPNFGAIPSSTNVGSETY-NH2 (disulfide 2-7; SMILES CC[C@H](C)[C@H](NC(=O)[C@H](C)NC(=O)CNC(=O)[C@H](Cc1ccccc1)NC(=O)[C@H](CC(N)=O)NC(=O)[C@@H]1CCCN1C(=O)[C@H](CO)NC(=O)[C@H](CO)NC(=O)[C@H](Cc1c[nH]cn1)NC(=O)[C@H](CCCNC(=N)N)NC(=O)[C@H](CC(C)C)NC(=O)[C@H](Cc1ccccc1)NC(=O)[C@H](Cc1c[nH]cn1)NC(=O)[C@H](C)NC(=O)[C@H](CC(C)C)NC(=O)[C@H](CCCNC(=N)N)NC(=O)[C@H](CCC(N)=O)NC(=O)[C@@H](NC(=O)[C@H](C)NC(=O)[C@@H]1CSSC[C@H](NC(=O)[C@H](CCCCN)NC(=O)CC[C@H](NC(=O)CCCCCCCCCCCCCCCCCCC(=O)O)C(=O)O)C(=O)N[C@@H](CC(N)=O)C(=O)N[C@@H]([C@@H](C)O)C(=O)N[C@@H](C)C(=O)N[C@@H]([C@@H](C)O)C(=O)N1)[C@@H](C)O)C(=O)N1CCC[C@H]1C(=O)N[C@@H](CO)C(=O)N[C@@H](CO)C(=O)N[C@H](C(=O)N[C@@H](CC(N)=O)C(=O)N[C@H](C(=O)NCC(=O)N[C@@H](CO)C(=O)N[C@@H](CCC(=O)O)C(=O)N[C@H](C(=O)N[C@@H](Cc1ccc(O)cc1)C(N)=O)[C@@H](C)O)C(C)C)[C@@H](C)O, Derivative of human amylin; also called compound 30) | 36.1 | 23.6 | 3.14 | 114 |

The remaining lines, values ahead:

| Ratio rCT/rAmylin binding (rat calcitonin receptor [1]) | Ratio hCT/hAmylin binding [2] | IC50 [3] [nM] | IC50 (rat calcitonin receptor [4]) [nM] | Binder |
| --- | --- | --- | --- | --- |
| 12.6 | 3.9 | 2.29 | 28.9 | {C20 diacid-γGlu}-KCNTATCATQRLAEFLRHSSPNFGAILPSTNVGSETY-NH2 (disulfide 2-7; SMILES CC[C@H](C)[C@H](NC(=O)[C@H](C)NC(=O)CNC(=O)[C@H](Cc1ccccc1)NC(=O)[C@H](CC(N)=O)NC(=O)[C@@H]1CCCN1C(=O)[C@H](CO)NC(=O)[C@H](CO)NC(=O)[C@H](Cc1c[nH]cn1)NC(=O)[C@H](CCCNC(=N)N)NC(=O)[C@H](CC(C)C)NC(=O)[C@H](Cc1ccccc1)NC(=O)[C@H](CCC(=O)O)NC(=O)[C@H](C)NC(=O)[C@H](CC(C)C)NC(=O)[C@H](CCCNC(=N)N)NC(=O)[C@H](CCC(N)=O)NC(=O)[C@@H](NC(=O)[C@H](C)NC(=O)[C@@H]1CSSC[C@H](NC(=O)[C@H](CCCCN)NC(=O)CC[C@H](NC(=O)CCCCCCCCCCCCCCCCCCC(=O)O)C(=O)O)C(=O)N[C@@H](CC(N)=O)C(=O)N[C@@H]([C@@H](C)O)C(=O)N[C@@H](C)C(=O)N[C@@H]([C@@H](C)O)C(=O)N1)[C@@H](C)O)C(=O)N[C@@H](CC(C)C)C(=O)N1CCC[C@H]1C(=O)N[C@@H](CO)C(=O)N[C@H](C(=O)N[C@@H](CC(N)=O)C(=O)N[C@H](C(=O)NCC(=O)N[C@@H](CO)C(=O)N[C@@H](CCC(=O)O)C(=O)N[C@H](C(=O)N[C@@H](Cc1ccc(O)cc1)C(N)=O)[C@@H](C)O)C(C)C)[C@@H](C)O, Derivative of human amylin; also called compound 33) |
| 34 | 10.9 | 0.176 | 5.98 | {C20 diacid-γGlu}-KCNTATCATQRLAEFLRHSSPNFGAIPSSTNVGPNTY-NH2 (disulfide 2-7; SMILES CC[C@H](C)[C@H](NC(=O)[C@H](C)NC(=O)CNC(=O)[C@H](Cc1ccccc1)NC(=O)[C@H](CC(N)=O)NC(=O)[C@@H]1CCCN1C(=O)[C@H](CO)NC(=O)[C@H](CO)NC(=O)[C@H](Cc1c[nH]cn1)NC(=O)[C@H](CCCNC(=N)N)NC(=O)[C@H](CC(C)C)NC(=O)[C@H](Cc1ccccc1)NC(=O)[C@H](CCC(=O)O)NC(=O)[C@H](C)NC(=O)[C@H](CC(C)C)NC(=O)[C@H](CCCNC(=N)N)NC(=O)[C@H](CCC(N)=O)NC(=O)[C@@H](NC(=O)[C@H](C)NC(=O)[C@@H]1CSSC[C@H](NC(=O)[C@H](CCCCN)NC(=O)CC[C@H](NC(=O)CCCCCCCCCCCCCCCCCCC(=O)O)C(=O)O)C(=O)N[C@@H](CC(N)=O)C(=O)N[C@@H]([C@@H](C)O)C(=O)N[C@@H](C)C(=O)N[C@@H]([C@@H](C)O)C(=O)N1)[C@@H](C)O)C(=O)N1CCC[C@H]1C(=O)N[C@@H](CO)C(=O)N[C@@H](CO)C(=O)N[C@H](C(=O)N[C@@H](CC(N)=O)C(=O)N[C@H](C(=O)NCC(=O)N1CCC[C@H]1C(=O)N[C@@H](CC(N)=O)C(=O)N[C@H](C(=O)N[C@@H](Cc1ccc(O)cc1)C(N)=O)[C@@H](C)O)C(C)C)[C@@H](C)O, Derivative of human amylin; also called compound 32) |
